The source of these data is publication PMC1557793.

Where two headings read alike, the source gives them in different places.

In data set [1] the target is E1 helicase domain of bovine papillomavirus type-1 (BPV-1) E1 (bovine papillomavirus type-1 (BPV-1)). Put plainly: SEC.
Data set [2] shares this target. Put plainly: SEC + other: glycerol gradient sedimentation.
The target of data set [3] is T1, E1HD (E1 helicase domain) (bovine papillomavirus type 1 (BPV-1), UniProt P03116 299-605). Put plainly: EMSA.
For data set [4], the target named is T1, E1HD (E1 helicase domain). Put plainly: EMSA. The source holds these as a separate data set. (In general: Mobility shift assays separate free from complexed probe on a gel.)
For data set [5], the target named is T1, E1HD (E1 helicase domain). Put plainly: EMSA. This is another data set of the same source.
For data set [6], the target named is T1, E1HD (E1 helicase domain). Put plainly: EMSA. This is another data set of the same source.
Data set [7] has as its target T1, E1HD (E1 helicase domain). Put plainly: EMSA. This is another data set of the same source.
Data set [8] addresses T1, E1HD (E1 helicase domain). Put plainly: gel filtration.

E1 helicase domain of bovine papillomavirus type-1 (BPV-1) E1 (domain or fragment), sequence (P03116 whole entry, the tested form may be a part): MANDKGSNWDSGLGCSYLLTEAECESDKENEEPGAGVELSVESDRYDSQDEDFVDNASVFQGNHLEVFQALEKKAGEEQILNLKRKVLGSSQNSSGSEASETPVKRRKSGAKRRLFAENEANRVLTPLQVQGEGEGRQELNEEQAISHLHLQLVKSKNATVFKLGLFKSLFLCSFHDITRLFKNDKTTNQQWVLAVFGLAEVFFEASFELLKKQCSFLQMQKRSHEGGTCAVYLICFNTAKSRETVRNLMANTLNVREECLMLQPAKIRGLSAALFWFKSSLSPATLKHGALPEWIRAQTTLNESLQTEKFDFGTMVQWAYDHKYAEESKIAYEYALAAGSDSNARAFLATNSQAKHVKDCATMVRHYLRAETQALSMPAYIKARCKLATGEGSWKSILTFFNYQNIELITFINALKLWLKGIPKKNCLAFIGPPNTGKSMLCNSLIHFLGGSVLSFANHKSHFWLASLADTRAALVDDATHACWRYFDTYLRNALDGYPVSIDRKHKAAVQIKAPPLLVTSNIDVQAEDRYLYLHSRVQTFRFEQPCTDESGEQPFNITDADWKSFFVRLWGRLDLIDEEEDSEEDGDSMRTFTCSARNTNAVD
T1 sequence (P03116 299-605): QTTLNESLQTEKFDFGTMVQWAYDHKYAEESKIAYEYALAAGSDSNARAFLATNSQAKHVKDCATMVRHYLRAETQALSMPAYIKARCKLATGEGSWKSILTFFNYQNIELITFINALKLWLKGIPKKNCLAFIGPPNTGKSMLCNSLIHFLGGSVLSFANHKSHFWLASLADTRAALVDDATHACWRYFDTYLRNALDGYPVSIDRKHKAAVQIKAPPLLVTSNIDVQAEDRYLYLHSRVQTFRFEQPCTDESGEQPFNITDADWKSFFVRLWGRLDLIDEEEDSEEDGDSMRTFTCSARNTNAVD

Consider “E1 helicase domain of bovine papillomavirus type-1 (BPV-1) E1 (domain or fragment)”, for which, in data set [1], the percent of protein oligomeric amounted to 40% and the stoichiometry N (as a rule, the number of molecules, sites or subunits per partner or assembly) was 6. Also, the stoichiometry N in data set [2] was 6.

For TTTTTTTTTTTTTTTTTTTTTTTTTTTTTTTTTTTTTTTTTT (ssDNA) [T42], in data set [3], the binding result is listed as “binds”.

For TTTTTT (ssDNA) [T6], the binding result in data set [4] is listed as “no binding”.

As for TTTTTTTTTTTTTTTTTTTT (ssDNA) [T20], the binding result in data set [5] is “binds”.

Turning to TTTTTTTTTTTTTTTTTTTTTTTTTTTTTT (ssDNA) [T30], the Kd (in general, the concentration at which binding is half-saturated) came out at 0.297 ± 0.007 µM in data set [6] and 1.83 ± 0.29 µM in data set [7].

As for TTTTTTTTTTTTTTTT (ssDNA) [T16], the binding result in data set [5] is “binds”.

TTTTTTTTTTTTTTTTTT (ssDNA) [T18]: the binding result in data set [8] is recorded as “binds”.
